Assay results taken from patent US20050191240A1 (BIOSYNTHEMA, published 2005).
Like-named read-outs stand apart in the source and are kept apart here. *1 amine or outer side, *2 acyl side, *3 side chain or, on linkers, in order; H or OH if unused. [ ]: non-standard residue; d: D form. The star is where a group is joined. trans‑Cha(4-CH2NH2) = trans-(4-aminomethyl)cyclohexylalanine, O=C([C@H](C[C@H]1CC[C@H](CN[*:3])CC1)N[*:1])[*:2]; Gly(1-amidinopiperidin-4-yl) = N=C(N)N1CCC([C@H](N)C(=O)O)CC1; DTPA = O=C(O)CN(CCN(CC(=O)O)CC(=O)O)CCN(CC(=O)O)CC(=O)*; Phe(4-guanidino) = N=C(N)Nc1ccc(C[C@H](N)C(=O)O)cc1; homoAla(PipAm) = (N-amidinopiperidinyl)homoalanine; Ala(PipAm) = (N-amidinopiperidinyl)alanine; Dmt = Cc1cc(O)cc(C)c1C[C@H](N)C(=O)O; mTyr = N[C@@H](Cc1cccc(O)c1)C(=O)O; Ala(cPr) = N[C@@H](CC1CC1)C(=O)O; AzeCA = azetidinecarboxylic acid; tBuAla = CC(C)(C)C[C@H](N)C(=O)O; Cha = N[C@@H](CC1CCCCC1)C(=O)O; Chg = N[C@H](C(=O)O)C1CCCCC1; Tle = CC(C)(C)[C@H](N)C(=O)O; Aba(Apy) = not defined here; PipGly = piperidinylglycine; NHOH = ON*

B1: DTPA-DLys-Pro-(4-Gu)Phe-Arg-Pro-Tyr-tBuGly-Leu-OH (peptide)
peptide: {DTPA}-[dK]P[Phe(4-guanidino)]RPY[Tle]L-OH
notes: also called Compound IX; DTPA-DLys-Pro-Phe(4-guanyl)-Arg-Pro-Tyr-tBuGly-Leu-OH
B2: DTPA-DLys-AzeCA-Gly(PipAm)-Arg-Pro-Tyr-tBuGly-Leu-OH (peptide)
peptide: {DTPA}-[dK][AzeCA][Gly(1-amidinopiperidin-4-yl)]RPY[Tle]L-OH
B3: DTPA-DLys-Pro-Gly(PipAm)-Arg-Pro-Tyr-tBuGly-Cpa-OH (peptide)
peptide: {DTPA}-[dK]P[Gly(1-amidinopiperidin-4-yl)]RPY[Tle][Ala(cPr)]-OH
SMILES: CC(C)(C)[C@H](NC(=O)[C@H](Cc1ccc(O)cc1)NC(=O)[C@@H]1CCCN1C(=O)[C@H](CCCNC(=N)N)NC(=O)[C@@H](NC(=O)[C@@H]1CCCN1C(=O)[C@@H](CCCCN)NC(=O)CN(CCN(CCN(CC(=O)O)CC(=O)O)CC(=O)O)CC(=O)O)C1CCN(C(=N)N)CC1)C(=O)N[C@@H](CC1CC1)C(=O)O
B4: DTPA-DLys-Pro-Arg-(4-Gu)Phe-Pro-Tyr-Ile-Leu-OH (peptide)
peptide: KPRXPYIL
modifications: N-terminal DTPA; D-Lys at 1; (4-Gu)Phe [Phe(4-guanyl)] at 4 (X)
notes: also called DTPA-DLys-Pro-Arg-Phe(4-guanyl)-Pro-Tyr-Ile-Leu-OH
B5: DTPA-DLys-Pro-(4-Gu)Phe-(4-Gu)Phe-Pro-Tyr-Ile-Leu-OH (peptide)
peptide: {DTPA}-[dK]P[Phe(4-guanidino)][Phe(4-guanidino)]PYIL-OH
SMILES: CC[C@H](C)[C@H](NC(=O)[C@H](Cc1ccc(O)cc1)NC(=O)[C@@H]1CCCN1C(=O)[C@H](Cc1ccc(NC(=N)N)cc1)NC(=O)[C@H](Cc1ccc(NC(=N)N)cc1)NC(=O)[C@@H]1CCCN1C(=O)[C@@H](CCCCN)NC(=O)CN(CCN(CCN(CC(=O)O)CC(=O)O)CC(=O)O)CC(=O)O)C(=O)N[C@@H](CC(C)C)C(=O)O
notes: also called DTPA-DLys-Pro-Phe(4-guanyl)-Phe(4-guanyl)-Pro-Tyr-Ile-Leu-OH
B6: DTPA-DLys-Pro-Gly(PipAm)-Arg-Pro-Tyr-tBuGly-Leu-HA (peptide)
peptide: {DTPA}-[dK]P[Gly(1-amidinopiperidin-4-yl)]RPY[Tle]L-{NHOH}
B7: DTPA-DTyr-Glu-Asn-Lys-Pro-Gly(PipAm)-Arg-Pro-Tyr-tBuGly-Cha-OH (peptide)
peptide: {DTPA}-[dY]ENKP[Gly(1-amidinopiperidin-4-yl)]RPY[Tle][Cha]-OH
SMILES: CC(C)(C)[C@H](NC(=O)[C@H](Cc1ccc(O)cc1)NC(=O)[C@@H]1CCCN1C(=O)[C@H](CCCNC(=N)N)NC(=O)[C@@H](NC(=O)[C@@H]1CCCN1C(=O)[C@H](CCCCN)NC(=O)[C@H](CC(N)=O)NC(=O)[C@H](CCC(=O)O)NC(=O)[C@@H](Cc1ccc(O)cc1)NC(=O)CN(CCN(CCN(CC(=O)O)CC(=O)O)CC(=O)O)CC(=O)O)C1CCN(C(=N)N)CC1)C(=O)N[C@@H](CC1CCCCC1)C(=O)O
notes: also called Compound XIV
B8: DTPA-DLys-Pro-Gly(PipAm)-Arg-Pro-Tyr-Chg-Leu-OH (peptide)
peptide: {DTPA}-[dK]P[Gly(1-amidinopiperidin-4-yl)]RPY[Chg]L-OH
B9: DTPA-DTyr-Glu-Asn-Lys-Pro-Gly(PipAm)-Arg-Pro-Tyr-tBuGly-tBuAla-OH (peptide)
peptide: {DTPA}-[dY]ENKP[Gly(1-amidinopiperidin-4-yl)]RPY[Tle][tBuAla]-OH
SMILES: CC(C)(C)C[C@H](NC(=O)[C@@H](NC(=O)[C@H](Cc1ccc(O)cc1)NC(=O)[C@@H]1CCCN1C(=O)[C@H](CCCNC(=N)N)NC(=O)[C@@H](NC(=O)[C@@H]1CCCN1C(=O)[C@H](CCCCN)NC(=O)[C@H](CC(N)=O)NC(=O)[C@H](CCC(=O)O)NC(=O)[C@@H](Cc1ccc(O)cc1)NC(=O)CN(CCN(CCN(CC(=O)O)CC(=O)O)CC(=O)O)CC(=O)O)C1CCN(C(=N)N)CC1)C(C)(C)C)C(=O)O
notes: also called Compound XV
B10: DTPA-DLys-Pro-Gly(PipAm)-PipGly-Pro-Tyr-tBuGly-Leu-OH (peptide)
peptide: {DTPA}-[dK]P[Gly(1-amidinopiperidin-4-yl)][PipGly]PY[Tle]L-OH
B11: DTPA-DLys-Pro-Gly(PipAm)-Arg-Pro-DTyr-tBuGly-Leu-OH (peptide)
peptide: {DTPA}-[dK]P[Gly(1-amidinopiperidin-4-yl)]RP[dY][Tle]L-OH
B12: DTPA-DLys-Pro-Gly(PipAm)-Arg-Pro-(2,6-diMe)Tyr-tBuGly-Leu-OH (peptide)
peptide: {DTPA}-[dK]P[Gly(1-amidinopiperidin-4-yl)]RP[Dmt][Tle]L-OH
B13: DTPA-DLys-Pro-Gly(PipAm)-Arg-AzeCA-Tyr-tBuGly-Leu-OH (peptide)
peptide: {DTPA}-[dK]P[Gly(1-amidinopiperidin-4-yl)]R[AzeCA]Y[Tle]L-OH
B14: DTPA-PipGly-Pro-Gly(PipAm)-Arg-Pro-Tyr-tBuGly-Leu-OH (peptide)
peptide: {DTPA}-[PipGly]P[Gly(1-amidinopiperidin-4-yl)]RPY[Tle]L-OH
B15: DTPA-DLys-Pro-Gly(PipAm)-Arg-Pro-Tyr-tBuGly-tBuAla-OH (peptide)
peptide: {DTPA}-[dK]P[Gly(1-amidinopiperidin-4-yl)]RPY[Tle][tBuAla]-OH
SMILES: CC(C)(C)C[C@H](NC(=O)[C@@H](NC(=O)[C@H](Cc1ccc(O)cc1)NC(=O)[C@@H]1CCCN1C(=O)[C@H](CCCNC(=N)N)NC(=O)[C@@H](NC(=O)[C@@H]1CCCN1C(=O)[C@@H](CCCCN)NC(=O)CN(CCN(CCN(CC(=O)O)CC(=O)O)CC(=O)O)CC(=O)O)C1CCN(C(=N)N)CC1)C(C)(C)C)C(=O)O
B16: DTPA-DLys-Pro-Gly(PipAm)-Arg-Pro-Tyr-Ile-Leu-OH (peptide)
peptide: KPXRPYIL
modifications: N-terminal DTPA; D-Lys at 1; Gly(PipAm) ((N-amidinopiperidinyl)glycine) at 3 (X)
notes: also called Compound II
B17: DTPA-DTyr-Glu-Asn-Lys-Pro-Gly(PipAm)-Arg-Pro-Tyr-tBuGly-Leu-OH (peptide)
peptide: {DTPA}-[dY]ENKP[Gly(1-amidinopiperidin-4-yl)]RPY[Tle]L-OH
SMILES: CC(C)C[C@H](NC(=O)[C@@H](NC(=O)[C@H](Cc1ccc(O)cc1)NC(=O)[C@@H]1CCCN1C(=O)[C@H](CCCNC(=N)N)NC(=O)[C@@H](NC(=O)[C@@H]1CCCN1C(=O)[C@H](CCCCN)NC(=O)[C@H](CC(N)=O)NC(=O)[C@H](CCC(=O)O)NC(=O)[C@@H](Cc1ccc(O)cc1)NC(=O)CN(CCN(CCN(CC(=O)O)CC(=O)O)CC(=O)O)CC(=O)O)C1CCN(C(=N)N)CC1)C(C)(C)C)C(=O)O
notes: also called Compound XIII
B18: DTPA-DLys-Pro-Gly(PipAm)-Arg-Pro-Tyr-tBuGly-Leu-OH (peptide)
peptide: {DTPA}-[dK]P[Gly(1-amidinopiperidin-4-yl)]RPY[Tle]L-OH
notes: also called Compound X
B19: DTPA-DLys-Pro-Gly(PipAm)-Arg-Pro-mTyr-tBuGly-Leu-OH (peptide)
peptide: {DTPA}-[dK]P[Gly(1-amidinopiperidin-4-yl)]RP[mTyr][Tle]L-OH
B20: DTPA-DLys-Pro-Gly(PipAm)-Arg-Pro-Tyr-tBuGly-Cha-OH (peptide)
peptide: {DTPA}-[dK]P[Gly(1-amidinopiperidin-4-yl)]RPY[Tle][Cha]-OH
SMILES: CC(C)(C)[C@H](NC(=O)[C@H](Cc1ccc(O)cc1)NC(=O)[C@@H]1CCCN1C(=O)[C@H](CCCNC(=N)N)NC(=O)[C@@H](NC(=O)[C@@H]1CCCN1C(=O)[C@@H](CCCCN)NC(=O)CN(CCN(CCN(CC(=O)O)CC(=O)O)CC(=O)O)CC(=O)O)C1CCN(C(=N)N)CC1)C(=O)N[C@@H](CC1CCCCC1)C(=O)O
B21: DTPA-DLys-Pro-Aba(Apy)-Arg-Pro-Tyr-Ile-Leu-OH (peptide)
peptide: {DTPA}-[dK]P[Aba(Apy)]RPYIL-OH
modifications: reading uncertain
notes: also called Compound III
B22: DTPA-DLys-Pro-homoAla(PipAm)-Arg-Pro-Tyr-tBuGly-Leu-OH (peptide)
peptide: {DTPA}-[dK]P[homoAla(PipAm)]RPY[Tle]L-OH
B23: DTPA-DLys-Pro-Arg-Aba(Apy)-Pro-Tyr-Ile-Leu-OH (peptide)
peptide: {DTPA}-[dK]PR[Aba(Apy)]PYIL-OH
modifications: reading uncertain
B24: DTPA-trans-Cha(4-CH2NH2)-Pro-Gly(PipAm)-Arg-Pro-Tyr-tBuGly-Leu-OH (peptide)
peptide: {DTPA}-[trans‑Cha(4-CH2NH2)]P[Gly(1-amidinopiperidin-4-yl)]RPY[Tle]L-OH
SMILES: CC(C)C[C@H](NC(=O)[C@@H](NC(=O)[C@H](Cc1ccc(O)cc1)NC(=O)[C@@H]1CCCN1C(=O)[C@H](CCCNC(=N)N)NC(=O)[C@@H](NC(=O)[C@@H]1CCCN1C(=O)[C@H](C[C@H]1CC[C@H](CN)CC1)NC(=O)CN(CCN(CCN(CC(=O)O)CC(=O)O)CC(=O)O)CC(=O)O)C1CCN(C(=N)N)CC1)C(C)(C)C)C(=O)O
B25: DTPA-DLys-Pro-Ala(PipAm)-Arg-Pro-Tyr-tBuGly-Leu-OH (peptide)
peptide: {DTPA}-[dK]P[Ala(PipAm)]RPY[Tle]L-OH
B26: DTPA-DLys-Pro-(4-Gu)Phe-Arg-Pro-Tyr-Ile-Leu-OH (peptide)
peptide: KPXRPYIL
modifications: N-terminal DTPA; D-Lys at 1; (4-Gu)Phe [Phe(4-guanyl)] at 3 (X)
notes: also called Compound I; DTPA-DLys-Pro-Phe(4-guanyl)-Arg-Pro-Tyr-Ile-Leu-OH

Tests used:
Assay in all cases: competitive binding vs radioiodinated native neurotensin, human tumor sections
[1] = molecular target: neurotensin receptors (frozen tissue sections from receptor-positive human tumors) (human) (UniProt P30989)
Sequence of neurotensin receptors (frozen tissue sections from receptor-positive human tumors) (human) (P30989 whole entry): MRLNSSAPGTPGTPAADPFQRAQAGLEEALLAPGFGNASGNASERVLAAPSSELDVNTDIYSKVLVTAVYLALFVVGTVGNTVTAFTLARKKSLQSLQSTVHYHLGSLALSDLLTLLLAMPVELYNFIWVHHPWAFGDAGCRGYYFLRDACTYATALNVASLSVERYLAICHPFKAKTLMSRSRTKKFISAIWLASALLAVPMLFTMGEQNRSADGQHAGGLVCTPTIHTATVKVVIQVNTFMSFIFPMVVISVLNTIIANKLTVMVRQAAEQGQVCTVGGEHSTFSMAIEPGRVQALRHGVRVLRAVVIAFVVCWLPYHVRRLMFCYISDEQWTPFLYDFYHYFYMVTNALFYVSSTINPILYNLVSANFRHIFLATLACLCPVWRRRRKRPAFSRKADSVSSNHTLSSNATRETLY

[2] = molecular target: T1, neurotensin receptors (frozen tissue sections from receptor-positive human tumors) (human, UniProt P30989 1-418)
T1 construct: whole, on cells
T1 sequence (P30989 whole entry): as above
Description: (§1) Frozen tissue sections from receptor-positive human tumors were used in a competitive binding assay.

[3] = molecular target: T1, neurotensin receptors (frozen tissue …); remark: listed apart in the source
Description: as §1

[4] = molecular target: T1, neurotensin receptors (frozen tissue …); remark: listed apart in the source
Description: as §1

Row | Molecule | Kd [1] | Kd [3] | also measured
1 | DTPA-DLys-Pro-Aba(Apy)-Aba(Apy)-Pro-Tyr-Ile-Leu-OH (peptide) | > 10000 nM | – | –
2 | B1 | – | 12.5 nM | IC50 [2]: 12.5 nM
3 | B2 | 24 nM | – | –
4 | B3 | 290 nM | – | –
5 | B4 | – | 83 nM | Kd [2]: 83 nM
6 | B5 | – | 175 nM | Kd [2]: 175 nM
7 | B6 | – | 49 nM | –
8 | B7 | – | 4.5 nM | –
9 | B8 | – | 25 nM | –
10 | B9 | – | 3.5 nM | –
11 | B10 | 140 nM | – | –
12 | B11 | – | 6.4 nM | –
13 | B12 | 45 nM | – | –
14 | B13 | 740 nM | – | –
15 | B14 | 3.9 nM | – | –
16 | B15 | 7.3 nM | – | –
17 | B16 | – | 2.7 nM | Kd [4]: 2.7 nM; Kd [2]: 2.7 nM
18 | B17 | – | 4.5 nM | –
19 | B18 | – | 3.5 nM | IC50 [2]: 3.5 nM
20 | B19 | 300 nM | – | –
21 | B20 | 12 nM | – | –
22 | B21 | – | 68 nM | Kd [4]: 68 nM; Kd [2]: 68 nM
23 | B22 | – | 14 nM | –
24 | B23 | – | 1200 nM | Kd [2]: 1200 nM
25 | B24 | 5 nM | – | –
26 | B25 | – | 14 nM | –
27 | B26 | – | 8.6 nM | Kd [4]: 8.6 nM; Kd [2]: 8.6 nM
